In test [1] the target is calreticulin (hamster (endogenous in CHO)) (UniProt Q8K3H7). The test can be described thus: co-IP.
For test [2] the target is unchanged. The test is described as follows: co-IP. This is another data set of the same source.

Like-named read-outs stand apart in the source and are kept apart here.

Sequence of UniProt Q8K3H7 (Q8K3H7 18-417): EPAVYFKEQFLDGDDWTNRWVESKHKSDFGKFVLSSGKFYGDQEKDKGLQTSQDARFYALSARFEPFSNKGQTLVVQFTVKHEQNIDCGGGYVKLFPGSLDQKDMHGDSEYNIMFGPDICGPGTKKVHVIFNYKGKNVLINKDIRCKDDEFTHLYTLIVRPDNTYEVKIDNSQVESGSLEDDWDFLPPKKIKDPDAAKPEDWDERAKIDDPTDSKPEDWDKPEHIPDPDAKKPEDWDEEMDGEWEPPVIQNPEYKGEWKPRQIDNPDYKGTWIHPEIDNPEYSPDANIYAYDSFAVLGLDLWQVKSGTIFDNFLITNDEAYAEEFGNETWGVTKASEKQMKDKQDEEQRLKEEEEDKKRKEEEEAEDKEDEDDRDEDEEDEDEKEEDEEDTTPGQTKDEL

For “influenza hemagglutinin (HA) wild type, transiently expressed in MI8-5 CHO cells (from UniProt P03437 17-566) (natural protein)”, the results for the percent bound in test [1] and in test [2] were 70% and 16%, respectively.

The values are drawn from paper PMC2315677.
